Reference: the supplement of paper PMC10065799, “High-throughput profiling of sequence recognition by tyrosine kinases and SH2 domains using bacterial peptide display” (eLife, 2023)

Legend:
Fer (mouse) = experiment: phosphorylation enrichment, bacterial display (enrichment ratio); higher = better substrate or ligand; peptides without Tyr show the background
c-Src = experiment: as above
Fes = Fes (UniProt P07332); experiment: as above
EPHB2 = EPHB2 (UniProt P29323); experiment: as above
c-Abl (mouse) = experiment: as above
Fyn = Fyn (UniProt P06241); experiment: as above
EPHB1 = EPHB1 (UniProt P54762); experiment: as above
FGFR1 = FGFR1 (UniProt P11362); experiment: as above
AncSZ = experiment: as above
FGFR3 = FGFR3 (UniProt P22607); experiment: as above
Hck = Hck (UniProt P08631); experiment: as above
MERTK = MERTK (UniProt Q12866); experiment: as above
Jak2 = Jak2 (UniProt O60674); experiment: as above
Grb2 SH2 = Grb2 SH2 (UniProt P62993); experiment: SH2 binding enrichment of the phosphorylated peptide, bacterial display (enrichment ratio); higher = better substrate or ligand; peptides without Tyr show the background
SHP2-C SH2 = experiment: as above
c-Src SH2 = experiment: as above
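Throughout, for SH2 binding enrichment of the phosphorylated peptide, bacterial display: peptide library displayed on the E. coli surface as eCPX fusions, selected cells deep-sequenced, score is each peptide's frequency after selection divided by its frequency in the input.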
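Throughout, for phosphorylation enrichment, bacterial display: 11-residue human phosphosite peptides and single-mutation variants displayed on the E. coli surface, counted by deep sequencing, each peptide's frequency after selection divided by its frequency in the unselected input library; frequency after pTyr selection over input frequency; kinase dosed for 20-30% of maximal phosphorylation in three min.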

Hck, sequence (P08631 whole entry, looked up): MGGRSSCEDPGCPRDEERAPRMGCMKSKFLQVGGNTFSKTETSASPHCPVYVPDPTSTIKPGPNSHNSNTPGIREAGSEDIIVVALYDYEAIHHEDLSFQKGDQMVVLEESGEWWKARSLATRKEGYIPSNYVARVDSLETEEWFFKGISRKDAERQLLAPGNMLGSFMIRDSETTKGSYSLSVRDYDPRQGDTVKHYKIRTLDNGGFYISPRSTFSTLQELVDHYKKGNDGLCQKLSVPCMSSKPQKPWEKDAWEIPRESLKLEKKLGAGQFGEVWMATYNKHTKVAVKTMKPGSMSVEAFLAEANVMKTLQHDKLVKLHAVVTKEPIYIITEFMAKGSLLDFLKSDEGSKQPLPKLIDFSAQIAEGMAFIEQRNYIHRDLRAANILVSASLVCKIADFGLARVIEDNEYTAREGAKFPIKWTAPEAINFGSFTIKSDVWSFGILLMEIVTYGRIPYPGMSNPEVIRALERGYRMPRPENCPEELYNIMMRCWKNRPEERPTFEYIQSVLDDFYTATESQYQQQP
Jak2, sequence (O60674 whole entry, looked up): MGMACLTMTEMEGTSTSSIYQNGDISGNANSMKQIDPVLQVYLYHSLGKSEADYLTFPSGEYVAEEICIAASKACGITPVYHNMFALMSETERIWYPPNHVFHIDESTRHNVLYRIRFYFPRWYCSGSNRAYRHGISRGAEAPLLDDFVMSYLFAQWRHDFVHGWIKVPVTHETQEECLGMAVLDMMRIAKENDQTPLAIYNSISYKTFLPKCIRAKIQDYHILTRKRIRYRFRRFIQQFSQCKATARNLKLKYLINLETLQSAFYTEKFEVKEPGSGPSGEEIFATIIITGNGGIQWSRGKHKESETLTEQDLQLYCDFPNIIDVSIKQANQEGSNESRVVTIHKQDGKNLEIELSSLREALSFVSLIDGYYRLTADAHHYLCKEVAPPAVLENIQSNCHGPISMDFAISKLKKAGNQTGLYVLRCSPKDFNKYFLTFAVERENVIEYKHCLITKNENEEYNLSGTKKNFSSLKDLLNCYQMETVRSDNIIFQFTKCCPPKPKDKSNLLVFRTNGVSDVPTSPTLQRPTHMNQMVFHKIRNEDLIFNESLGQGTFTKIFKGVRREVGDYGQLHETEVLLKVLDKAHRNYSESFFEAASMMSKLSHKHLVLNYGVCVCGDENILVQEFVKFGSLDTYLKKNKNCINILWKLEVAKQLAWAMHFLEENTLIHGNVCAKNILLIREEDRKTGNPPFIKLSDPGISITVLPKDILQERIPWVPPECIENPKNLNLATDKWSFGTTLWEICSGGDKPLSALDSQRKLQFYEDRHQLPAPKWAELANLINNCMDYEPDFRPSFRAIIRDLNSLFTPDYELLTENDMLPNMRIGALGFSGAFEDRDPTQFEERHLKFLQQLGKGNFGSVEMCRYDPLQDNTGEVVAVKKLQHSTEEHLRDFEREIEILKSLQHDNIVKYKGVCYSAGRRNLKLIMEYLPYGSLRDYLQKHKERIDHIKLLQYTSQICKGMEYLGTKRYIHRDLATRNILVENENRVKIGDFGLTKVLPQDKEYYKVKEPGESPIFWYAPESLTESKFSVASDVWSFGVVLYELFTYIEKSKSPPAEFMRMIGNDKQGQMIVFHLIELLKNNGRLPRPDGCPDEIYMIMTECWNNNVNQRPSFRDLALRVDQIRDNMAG
Fyn, sequence (P06241 whole entry, looked up): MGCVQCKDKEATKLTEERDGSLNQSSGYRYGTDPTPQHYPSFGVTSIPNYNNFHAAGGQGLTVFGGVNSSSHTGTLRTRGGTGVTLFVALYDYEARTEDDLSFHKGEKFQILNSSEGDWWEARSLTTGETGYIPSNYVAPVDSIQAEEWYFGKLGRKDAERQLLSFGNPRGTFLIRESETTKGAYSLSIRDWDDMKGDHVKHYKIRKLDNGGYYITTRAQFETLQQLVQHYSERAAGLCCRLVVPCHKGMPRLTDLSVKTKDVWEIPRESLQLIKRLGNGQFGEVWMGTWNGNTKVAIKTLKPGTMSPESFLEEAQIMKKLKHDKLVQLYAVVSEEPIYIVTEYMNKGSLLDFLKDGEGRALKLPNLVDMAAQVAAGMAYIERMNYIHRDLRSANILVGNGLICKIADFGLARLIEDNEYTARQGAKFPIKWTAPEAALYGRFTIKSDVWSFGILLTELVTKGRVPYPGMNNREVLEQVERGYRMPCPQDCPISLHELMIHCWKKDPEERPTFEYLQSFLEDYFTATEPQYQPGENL
MERTK, sequence (Q12866 whole entry, looked up): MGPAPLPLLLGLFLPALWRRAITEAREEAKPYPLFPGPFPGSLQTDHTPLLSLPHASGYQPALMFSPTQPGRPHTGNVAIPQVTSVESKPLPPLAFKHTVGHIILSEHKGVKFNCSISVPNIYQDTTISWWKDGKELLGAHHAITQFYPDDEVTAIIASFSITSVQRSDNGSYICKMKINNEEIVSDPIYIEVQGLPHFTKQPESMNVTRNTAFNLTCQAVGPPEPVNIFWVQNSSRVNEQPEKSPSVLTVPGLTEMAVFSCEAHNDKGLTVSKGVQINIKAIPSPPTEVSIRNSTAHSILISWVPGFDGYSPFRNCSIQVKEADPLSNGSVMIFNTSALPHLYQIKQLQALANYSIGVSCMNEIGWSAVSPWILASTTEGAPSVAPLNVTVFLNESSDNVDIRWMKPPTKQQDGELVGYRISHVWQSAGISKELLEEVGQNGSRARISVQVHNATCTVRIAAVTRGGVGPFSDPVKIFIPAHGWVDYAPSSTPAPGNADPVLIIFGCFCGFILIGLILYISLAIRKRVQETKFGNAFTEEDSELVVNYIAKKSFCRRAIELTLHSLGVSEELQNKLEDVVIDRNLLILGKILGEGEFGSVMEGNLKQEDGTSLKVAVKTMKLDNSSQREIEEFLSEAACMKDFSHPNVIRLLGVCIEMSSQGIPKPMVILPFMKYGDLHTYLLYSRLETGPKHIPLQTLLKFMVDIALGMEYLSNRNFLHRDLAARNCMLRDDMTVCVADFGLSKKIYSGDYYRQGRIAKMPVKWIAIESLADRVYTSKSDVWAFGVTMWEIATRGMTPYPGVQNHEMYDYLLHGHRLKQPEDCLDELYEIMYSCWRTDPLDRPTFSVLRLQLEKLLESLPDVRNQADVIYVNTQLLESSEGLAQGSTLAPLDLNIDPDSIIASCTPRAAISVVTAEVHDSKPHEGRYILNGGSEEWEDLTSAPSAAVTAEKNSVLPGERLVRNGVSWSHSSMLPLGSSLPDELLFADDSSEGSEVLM
EPHB2, sequence (P29323 whole entry, looked up): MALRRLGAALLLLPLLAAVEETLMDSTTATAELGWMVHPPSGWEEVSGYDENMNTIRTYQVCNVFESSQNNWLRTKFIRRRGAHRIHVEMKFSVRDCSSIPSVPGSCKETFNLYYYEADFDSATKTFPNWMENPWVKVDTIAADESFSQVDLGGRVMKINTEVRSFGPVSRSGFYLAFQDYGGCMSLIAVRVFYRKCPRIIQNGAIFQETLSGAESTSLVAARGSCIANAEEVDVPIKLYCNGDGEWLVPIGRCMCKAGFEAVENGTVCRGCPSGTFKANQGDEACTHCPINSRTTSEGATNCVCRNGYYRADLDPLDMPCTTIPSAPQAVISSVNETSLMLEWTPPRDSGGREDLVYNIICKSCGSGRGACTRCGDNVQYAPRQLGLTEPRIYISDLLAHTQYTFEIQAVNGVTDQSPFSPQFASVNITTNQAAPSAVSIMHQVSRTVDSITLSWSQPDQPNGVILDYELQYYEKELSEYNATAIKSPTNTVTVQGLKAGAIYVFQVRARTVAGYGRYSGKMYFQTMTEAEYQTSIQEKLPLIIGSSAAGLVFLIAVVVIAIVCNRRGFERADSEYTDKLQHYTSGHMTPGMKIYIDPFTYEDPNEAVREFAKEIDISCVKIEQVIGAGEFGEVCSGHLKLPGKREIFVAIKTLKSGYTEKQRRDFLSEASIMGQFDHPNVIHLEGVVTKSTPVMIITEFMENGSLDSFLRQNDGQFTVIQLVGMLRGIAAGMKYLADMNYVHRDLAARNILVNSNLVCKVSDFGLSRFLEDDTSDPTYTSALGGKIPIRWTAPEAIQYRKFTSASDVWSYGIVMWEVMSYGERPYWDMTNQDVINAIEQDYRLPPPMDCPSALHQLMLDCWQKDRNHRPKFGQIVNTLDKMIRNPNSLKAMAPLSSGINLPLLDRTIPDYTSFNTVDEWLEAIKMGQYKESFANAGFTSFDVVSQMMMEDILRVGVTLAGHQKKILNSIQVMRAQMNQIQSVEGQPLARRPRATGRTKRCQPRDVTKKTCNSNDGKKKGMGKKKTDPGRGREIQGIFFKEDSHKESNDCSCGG
Fes, sequence (P07332 whole entry, looked up): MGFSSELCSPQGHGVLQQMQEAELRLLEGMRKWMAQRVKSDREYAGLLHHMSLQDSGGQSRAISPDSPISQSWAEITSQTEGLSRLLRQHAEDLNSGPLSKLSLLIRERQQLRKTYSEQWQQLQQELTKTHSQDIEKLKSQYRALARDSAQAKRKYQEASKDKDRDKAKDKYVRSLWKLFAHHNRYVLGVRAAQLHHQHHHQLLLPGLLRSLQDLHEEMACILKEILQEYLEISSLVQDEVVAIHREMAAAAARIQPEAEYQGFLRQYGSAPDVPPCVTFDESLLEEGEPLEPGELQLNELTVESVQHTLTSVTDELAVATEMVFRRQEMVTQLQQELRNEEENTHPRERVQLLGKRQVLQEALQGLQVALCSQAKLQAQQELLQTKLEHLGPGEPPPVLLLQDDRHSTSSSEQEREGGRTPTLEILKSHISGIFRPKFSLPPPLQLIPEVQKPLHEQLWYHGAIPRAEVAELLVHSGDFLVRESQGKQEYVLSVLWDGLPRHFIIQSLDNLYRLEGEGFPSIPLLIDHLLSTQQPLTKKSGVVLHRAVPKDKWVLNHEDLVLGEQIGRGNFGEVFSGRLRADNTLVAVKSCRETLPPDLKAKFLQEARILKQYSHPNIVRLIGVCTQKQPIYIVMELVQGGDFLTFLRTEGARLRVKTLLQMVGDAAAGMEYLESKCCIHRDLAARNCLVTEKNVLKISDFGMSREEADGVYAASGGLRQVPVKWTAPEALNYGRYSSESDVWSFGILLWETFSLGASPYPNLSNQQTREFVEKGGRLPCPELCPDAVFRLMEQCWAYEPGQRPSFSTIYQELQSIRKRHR

| SH2 binding enrichment (Grb2 SH2) | SH2 binding enrichment (SHP2-C SH2) | SH2 binding enrichment (c-Src SH2) | Sequence | phosphorylation enrichment (Fer (mouse)) | phosphorylation enrichment (c-Src) | phosphorylation enrichment (Fes) | phosphorylation enrichment (EPHB2) | phosphorylation enrichment (c-Abl (mouse)) | phosphorylation enrichment (Fyn) | phosphorylation enrichment (EPHB1) | phosphorylation enrichment (FGFR1) | phosphorylation enrichment (AncSZ) | phosphorylation enrichment (FGFR3) | phosphorylation enrichment (Hck) | phosphorylation enrichment (MERTK) | phosphorylation enrichment (Jak2) |
| --- | --- | --- | --- | --- | --- | --- | --- | --- | --- | --- | --- | --- | --- | --- | --- | --- |
| 0.738 | 0.748 | 0.435 | RSDEDYLYREE [POR_Y573] | 0.559 | 0.56 | 1.54 | 0.854 | 0.813 | 0.761 | 0.756 | 0.784 | 1.32 | 1.16 | 0.827 | 0.52 | 1.48 |
| 0.812 | 0.703 | 0.477 | LERYIYNRQEF [HLA-DPB1_Y59_E62Q] | 0.772 | 1.24 | 1.01 | 0.856 | 0.415 | 0.819 | 0.475 | 0.624 | 1.05 | 0.605 | 1.32 | 0.413 | 0.449 |
| 0.996 | 0.631 | 0.851 | PKAWNYELPAT [PROM1_Y34] | 0.72 | 0.414 | 0.972 | 0.997 | 0.735 | 0.822 | 0.761 | 0.582 | 1.23 | 0.574 | 0.597 | 0.59 | 0.894 |
| 1.07 | 0.789 | 1.2 | ERDFTYDELLN [EIF2S2_Y176_E177D_YF] | 0.638 | 0.796 | 1.33 | 0.598 | 0.894 | 0.667 | 0.616 | 0.58 | 1.53 | 0.815 | 0.994 | 0.537 | 1.46 |
| 0.744 | 0.561 | 0.452 | LEQDEYALHSH [HADHB_Y244_R247H] | 0.642 | 0.665 | 1.24 | 0.669 | 1.1 | 0.887 | 0.882 | 0.847 | 1.45 | 0.805 | 0.598 | 0.578 | 1.2 |
| 0.79 | 1.02 | 7.71 | VEGIGYDFIPT [CBS_Y308] | 0.43 | 0.539 | 1.12 | 0.576 | 0.723 | 0.594 | 0.579 | 0.588 | 1.04 | 0.685 | 0.785 | 0.501 | 0.827 |
| 0.92 | 1.54 | 0.528 | ADKSVYLMGLN [MYH7_Y386_A385V] | 0.413 | 0.678 | 0.769 | 0.409 | 0.338 | 0.583 | 0.407 | 0.444 | 0.666 | 0.523 | 0.481 | 0.379 | 0.51 |
| 2.46 | 0.949 | 0.578 | SLMNQYVNKEF [RAB7A_Y28_K32E] | 0.385 | 0.459 | 0.66 | 0.554 | 0.482 | 0.461 | 0.392 | 0.373 | 0.58 | 0.568 | 0.469 | 0.383 | 0.442 |
| 0.821 | 0.788 | 0.519 | FLENFYDLKKD [MMP3_Y42_YF] | 0.472 | 1.9 | 1.02 | 0.563 | 0.663 | 2.57 | 0.453 | 0.452 | 1.24 | 0.551 | 1.92 | 0.549 | 0.922 |
| 0.965 | 0.873 | 0.722 | HDRREYSRFEK [ITGB7_Y758_Y753H] | 0.731 | 0.53 | 0.973 | 0.373 | 0.887 | 0.317 | 0.754 | 0.585 | 0.743 | 0.718 | 0.524 | 0.445 | 0.647 |
| 1.34 | 0.891 | 0.796 | RHPYFYAPELL [ALB_Y174] | 0.476 | 0.776 | 1.19 | 0.762 | 0.694 | 0.517 | 0.564 | 12.7 | 1.38 | 10.8 | 0.474 | 0.622 | 1.13 |
| 0.889 | 0.757 | 1.67 | KDKLPYPYDDP [GPX2_Y125] | 0.455 | 0.486 | 1.17 | 0.487 | 0.584 | 0.414 | 0.599 | 0.562 | 1 | 0.655 | 0.435 | 0.42 | 1.04 |
| 0.73 | 0.535 | 0.507 | IGEGTYGVVYK [CDK2_Y15] | 1.73 | 5.96 | 0.896 | 7.28 | 0.63 | 10.6 | 2.67 | 0.551 | 0.907 | 0.67 | 7.9 | 2.01 | 0.756 |
| 0.965 | 0.515 | 0.552 | LFEDRYLLGPS [ASS1_Y87_T91P_YF] | 0.634 | 0.689 | 1.42 | 0.872 | 1.07 | 0.793 | 0.857 | 0.679 | 1.07 | 1.12 | 0.804 | 0.58 | 1.73 |
| 1.04 | 1.46 | 0.741 | VNFDYYTVNLG [GFPT1_Y367_D366Y] | 6.01 | 4.7 | 1.25 | 5.41 | 1.36 | 5.83 | 6.6 | 15.6 | 5.81 | 14.5 | 4.22 | 4.02 | 9.69 |
| 1.12 | 1.07 | 0.611 | KILGRYFETSS [PAX2_Y72_G76S_YF] | 0.432 | 0.341 | 0.694 | 0.406 | 0.529 | 0.374 | 0.424 | 0.469 | 0.648 | 0.633 | 0.508 | 0.358 | 0.706 |
| 0.768 | 1 | 1.34 | CTTIDYNYMCN [TP53_Y234_H233D] | 0.464 | 0.488 | 0.93 | 0.643 | 0.682 | 0.558 | 0.715 | 0.957 | 1.3 | 0.831 | 0.598 | 0.449 | 0.838 |
| 0.684 | 0.745 | 0.568 | EAAFVYAISSA [WNT4_Y113] | 0.649 | 2.79 | 1.3 | 0.59 | 2.7 | 1.9 | 0.623 | 0.586 | 1.34 | 0.749 | 1.38 | 0.566 | 1.36 |
| 1.29 | 0.962 | 3.33 | DLDLTYIYPNI [PTEN_Y27] | 0.424 | 1.4 | 0.871 | 0.961 | 0.612 | 2.84 | 1.71 | 3.8 | 3.91 | 2.61 | 1.37 | 2.41 | 1.57 |
| 0.955 | 1.11 | 0.725 | YGGLRYGYGGL [KRTAP20-2_Y13_V17G] | 0.407 | 0.76 | 0.839 | 0.427 | 0.559 | 0.959 | 0.418 | 0.407 | 0.645 | 0.536 | 1.42 | 0.381 | 0.671 |
| 0.958 | 1.04 | 0.493 | PSALGYSPSLR [LLGL2_Y40] | 0.512 | 0.692 | 0.887 | 0.628 | 0.764 | 0.75 | 0.769 | 0.404 | 0.669 | 0.46 | 0.472 | 0.712 | 0.908 |
| 1.11 | 0.828 | 1.02 | VAHAVYQAVLS [SMG1_Y549] | 8.18 | 4.58 | 0.935 | 7.85 | 1.14 | 5.92 | 9.09 | 0.656 | 0.899 | 0.591 | 8.28 | 4.22 | 0.666 |
| 0.807 | 0.666 | 0.467 | PNRILYGDFWQ [MYH6_Y717_R721W] | 0.626 | 4.24 | 1.29 | 0.939 | 0.778 | 5.79 | 0.689 | 0.555 | 1.1 | 0.935 | 2.16 | 0.849 | 0.999 |
| 0.752 | 0.591 | 0.476 | MDYRSYPREYG [RBM10_Y44] | 0.331 | 0.319 | 0.626 | 0.402 | 0.472 | 0.366 | 0.337 | 0.404 | 0.621 | 0.684 | 0.41 | 0.296 | 0.515 |
| 0.748 | 0.884 | 0.983 | TLLERYGMIEI [ACSF3_Y355_T358I] | 0.632 | 0.472 | 1.06 | 0.535 | 0.802 | 0.525 | 0.606 | 0.515 | 0.798 | 0.644 | 0.465 | 0.489 | 1.02 |
| 1.2 | 0.732 | 0.608 | PLYSKYWPNHI [GREB1L_Y1560_R1558S] | 12.3 | 11.8 | 1.27 | 29.7 | 22.6 | 19.9 | 19.1 | 5.11 | 2.47 | 3.06 | 17.4 | 20.1 | 6.37 |
| 0.74 | 0.673 | 0.64 | NLVSEYQQFQD [TUBB3_Y422_D417N_YF] | 0.556 | 0.698 | 1.14 | 0.624 | 0.88 | 0.574 | 0.739 | 0.545 | 1.17 | 0.745 | 0.535 | 0.429 | 1.08 |
| 0.674 | 0.612 | 1.78 | GVFSRHFTTFD [CLCA1_Y661_Y661H_YF] | 0.946 | 0.184 | 1.05 | 1.1 | 0.346 | 0.48 | 0.953 | 0.644 | 1.31 | 0.814 | 1.03 | 0.166 | 0.483 |

| Sequence | SH2 binding enrichment (Grb2 SH2) | SH2 binding enrichment (SHP2-C SH2) | SH2 binding enrichment (c-Src SH2) | phosphorylation enrichment (Fer (mouse)) | phosphorylation enrichment (c-Src) | phosphorylation enrichment (Fes) | phosphorylation enrichment (EPHB2) | phosphorylation enrichment (c-Abl (mouse)) | phosphorylation enrichment (Fyn) | phosphorylation enrichment (EPHB1) | phosphorylation enrichment (FGFR1) | phosphorylation enrichment (AncSZ) | phosphorylation enrichment (FGFR3) | phosphorylation enrichment (Hck) | phosphorylation enrichment (MERTK) | phosphorylation enrichment (Jak2) |
| --- | --- | --- | --- | --- | --- | --- | --- | --- | --- | --- | --- | --- | --- | --- | --- | --- |
| KYLENYLNRLL [PLD2_Y169] | 1.46 | 1.44 | 1.27 | 0.609 | 0.475 | 0.989 | 0.483 | 0.809 | 0.45 | 0.523 | 0.459 | 0.832 | 0.577 | 0.414 | 0.478 | 0.859 |
